From the supplement of paper PMC10724198

Assays:
Saccharomyces cerevisiae [1] = assay: protein stability index of tFT-peptide fusion in deletion strain of DAS1 (PSI (0-1 scale)); higher = more stable (slower turnover)
Experimental: (§1)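 MPS profiling in S. cerevisiae of two library types built from selected 12-aa C-degron peptides (IN1, IN2, LN1, LN3, VN2, R1-R5, W1-W3, Atg1 and Rpa12 C-termini): saturation mutagenesis libraries and C-terminal +1 capping libraries (13 aa). Each peptide is fused to the C-terminus of a sfGFP-mCherry timer, after a GGGS linker. Cells are FACS-sorted into 8 mCherry/sfGFP bins and sequenced. PSI runs from 0 (unstable) to 1 (stable), measured once in wild type and in the das1Δ or doa10Δ background.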

Saccharomyces cerevisiae [2] = assay: protein stability index of tFT-peptide fusion in wild type (PSI (0-1 scale)); higher = more stable (slower turnover); details: genetic background: wild type
Experimental: as §1
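Throughout, for protein stability index of tFT-peptide fusion in deletion strain of DAS1: PSI is a weighted mean of each variant's read distribution over the sorted stability bins, computed only for variants having over 10 reads in total.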
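Throughout, for protein stability index of tFT-peptide fusion in wild type: PSI derived as read-weighted mean over the 8 sorting bins, only variants exceeding 10 total reads kept, mCherry placed adjacent to the peptide and sfGFP distal.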

Sequence	protein stability index (Saccharomyces cerevisiae [1])	protein stability index (Saccharomyces cerevisiae [2])
KKHCKGQKQKIN	0.637	0.13
KKHEKGQKQKIN	0.603	0.0983
KKHKIGQKQKIN	0.563	0.142
KKHKKDQKQKIN	0.606	0.0671
KKHKKGIKQKIN	0.588	0.0645
KKHKKGMKQKIN	0.659	0.0523
KKHKKGNKQKIN	0.601	0.0792
KKHKKGQCQKIN	0.801	0.16
KKHKKGQHQKIN	0.579	0.0824
KKHKKGQIQKIN	0.569	0.109
KKHKKGQKLKIN	0.562	0.114
KKHKKGQKQFIN	0.558	0.209
KKHKKGQKQHIN	0.648	0.435
KKHKKGQKQKINA	0.655	0.259
KKHKKGQKQKIQ	0.594	0.37
KKHKKGQKQKSN	0.615	0.553
KKHKKGQKQWIN	0.657	0.553
KKHKKGQKYKIN	0.634	0.199
KKHKKGRKQKIN	0.586	0.0973
KKHKKGVKQKIN	0.743	0.128
KKLKKGQKQKIN	0.594	0.0797
KKNKKGQKQKIN	0.598	0.141
KVHKKGQKQKIN	0.64	0.0686

Sequence	protein stability index (Saccharomyces cerevisiae [1])	protein stability index (Saccharomyces cerevisiae [2])
KWHKKGQKQKIN	0.562	0.108
LGILRQKMNHQN	0.685	0.141
LKILKQKMNHQN	0.68	0.222
LKILRFKMNHQN	0.667	0.201
LKILRPKMNHQN	0.669	0.541
LKILRQKMAHQN	0.673	0.178
LKILRQKMEHQN	0.671	0.404
LKILRQKMNHDN	0.671	0.39
LKILRQKMNHEN	0.671	0.237
LKILRQKMNHQNE	0.656	0.652
LKILRQKMNHQNL	0.697	0.672
LKILRQKMNHQNN	0.671	0.585
LKILRQKMNHQT	0.671	0.252
LKILRQKMNHVN	0.666	0.206
LKILRQKMNHYN	0.657	0.223
LKILRQKMNIQN	0.686	0.214
LKILRQKMNSQN	0.672	0.213
LKILRQKMPHQN	0.692	0.681
LKILRQKPNHQN	0.675	0.68
LKILRSKMNHQN	0.666	0.208
LKILRWKMNHQN	0.658	0.209
LKILRYKMNHQN	0.64	0.181
LKILSQKMNHQN	0.681	0.232

Sequence	protein stability index (Saccharomyces cerevisiae [1])	protein stability index (Saccharomyces cerevisiae [2])
LKKLRQKMNHQN	0.68	0.235
LKNLRQKMNHQN	0.678	0.208
LVDYLSCVACIN	0.354	0.21
LVFYLSCVACIN	0.0573	0.016
LVIYLSCVACIN	0.0377	0.0156
LVNYLSCVACIN	0.259	0.0691
LVVALSCVACIN	0.0802	0.0223
LVVELSCVACIN	0.0632	0.0174
LVVFLSCVACIN	0.0386	0.0196
LVVQLSCVACIN	0.0857	0.0253
LVVYGSCVACIN	0.305	0.245
LVVYLKCVACIN	0.0351	0.0164
LVVYLSCHACIN	0.0466	0.0126
LVVYLSCRACIN	0.0311	0.0228
LVVYLSCVACFN	0.076	0.0281
LVVYLSCVACGN	0.0998	0.0824
LVVYLSCVACIM	0.022	0.0115
LVVYLSCVACINE	0.0324	0.0198
LVVYLSCVACTN	0.0308	0.0171
LVVYLSCVACYN	0.0338	0.0154
LVVYLSCVAIIN	0.0381	0.0151
LVVYLSCVWCIN	0.263	0.0553
LVVYLSDVACIN	0.495	0.458

Sequence	protein stability index (Saccharomyces cerevisiae [1])	protein stability index (Saccharomyces cerevisiae [2])
LVVYLSFVACIN	0.116	0.0293
MKHKKGQKQKIN	0.649	0.0627
MSLAASFWRVVG	0.67	0.124
NDKRNHLIKLLN	0.609	0.128
NSMRWTFRYWVN	0.598	0.0828
NTSCGYKFRTNN	0.68	0.217
PDDRNHLIKLLN	0.594	0.157
PDGRNHLIKLLN	0.601	0.161
PDKRFHLIKLLN	0.672	0.113
PDKRNHLCKLLN	0.665	0.131
PDKRNHLICLLN	0.608	0.269
PDKRNHLIDLLN	0.624	0.591
PDKRNHLIKKLN	0.581	0.0795
PDKRNHLIKLLQ	0.605	0.205
PDKRNHLIKSLN	0.627	0.298
PDKRNHLIKYLN	0.638	0.0757
PDKRNHLMKLLN	0.592	0.089
PDKRNHLWKLLN	0.601	0.0949
PDKRNHQIKLLN	0.609	0.127
PDKRNHYIKLLN	0.683	0.0965
